Results from the DeepSol protein solubility set.

Test: soluble on expression in E. coli; label from the status in PepcDB or PDB records

Sequence	soluble on expression in E. coli
MGSDKIHHHHHHMGLPMWANGDWRGSLYARHAPSSGMLHDYGAVFGSVEGNTTFYSGPPKADTVAQWARQAPADFRFCFKLPAQLTHDKRLVGIEDDFRTFCDALAPLHDRLGPTMVQLPRDFGARELPALAAFLEKWPSDMPCAVEVRHSEFFHKGDAEQQLNRLLITLGVDRVMLDVRPLFATPAGDDARLIKAQSEKPKRPLHVISTGRMPIVRFIGHCDMEINERLFAPWCERLALWIKQGKTPFLFVHTPDNRQAPQLARRFHARLSRCVTLPPLGDFPGERQSALF	not soluble
MGSDKIHHHHHHMGTVLIHVCCAPDLLTTIFHVRDAEFFFYNPNIQPLSEYEKRREAVDKVANHFSLNVRYGEYSTEEIRKWYTAVKDYKDLGEGSKRCERCISFLLERTAQEARKRGHESFSTTLLASPRKNLPMIENIGKTIEEKYGVKFFFKNFRKGGAYQEGVRLSKELGIYRQNYCGCVFSLLERREKHAEISRKRGHM	not soluble
MGSDKIHHHHHHMGTVPTPAGLAFFQQVQLALRHLDHAVDSAHSSRLSGHVTVGFSPSVAAVIGTHFLKLMRNRYPDIKVRLIEGLSGDLKALVNARQLDVAIIFSDDVDPQWAIQPLVKEQMFLISPKEVLNQYHLESCIDNQTITHSQLKELPLILPSQRHGLRLLLEQKIHQLKVAYEIDGLHLLMESISQLEMATIQPAGASLNSRQDLCLLRVVEPAIERINYLISLSEEELSPATLATKVVIRACVANLINEKRWPGAELINT	not soluble
MGSDKIHHHHHHMGVVETAEWLHLYYGRPEKLCEKFTKYIPLPKERLYRFLISKGMYRPVMRGEREIKELEKKEVWKELRAEYEKLKDWLKGPDVPVFILLSDSYNRTVQEEYNGRAGLSMRHVIFLFVCGRNSVEELKVLLAHEYHHICRLHQIETKETEYTLLDTMIMEGLAEQAVTERYSEKNNAPWTTYLSKEEAIYYWKNVVHERISIKRGTREHDILLNGFHSYPKMLGYALGFHIVKDCVTLEGEDTLSLLPIDAKEILNKANTFHI	not soluble
MGSDKIHHHHHHMHDVLIIGSGVIGMSIARHLSATHLDVAVIDRDVPGKHASYKAGGMLGAQNEFTEDSDLFQLAIESRAMFPQLSKSLLDETGIDIQFKNSGLIKIANEHDDISSIKRQYQFLNSQDRSVKQLSDDDLLQLTHGEVKPSYAAIHIPHDGQINAHHYTLALLESMKLRDIKRYESTEVTSIERHNGYYSVKTDQSSTIEAHKIIVAGGAWSSQLLTQYHLQRQVIGVKGEVILLENNDLSLTETLFMTNGCYIVPKQPNRFLIGATSEFNNYSVGTTDEGMDWLLRHAYHRVPQLKDSHILKKWSGVRPYTEKEMPVMDQIDDGLYVISGHYRNGILLSPIIGRDIANWLLSGIKPSRYSSFTVTRRNNHEVYH	not soluble
MGSDKIHHHHHHMHFLDDSLLPENQEKLVIQVAPYGPQWLPGDSDDIPVTMDEQVQKAVDCYNAGATVLHVHVREADGKGSKRLSMFNEMLARLREAVPGMVLQVGGSISFAPENDNQAAKWLNDDTRHMLAELSPRPDQVTVAINTSQMNVMELMTEADVAGTSLTNPALQAAYRDMIVPSNPSWHVEHIKRLVANGIQPHFMLGNLTQLETVERLIRRGVYTGPLVLNYVAIGGGAAGLHPADMVEFARRTPDGAVLTVETLNRNVVPLNTMAIAMGLHVRVGIEDTLYGPDGKRATSVQQIEKMVNIARELNREIASGTDAHRIYQTGTRWSSTEETLNRLGMVPNRQPEQRGVPPRKAA	not soluble
MGSDKIHHHHHHMHKDVSQLPQKANPALVKQANLFADLPTKLIEDFQQEFQLNQWNKGDYINSDILTQRFFVVIEGNIEIKQSNPDTGREATLDMLYAGDCFDLMVLLDNQPHEVIISPLTTVKLLSVKLSTMRYWLWTYPEFNQQFMPYIAKKMREKEQQASSLILHDVTTRLSRIILEHINKIKFYTGTKEEEHQHHLVNGLNDETLARMTGSVRQVINKQLQHWKKEDVIDKKRNQLIIKDLEALEKEAKYTQNLANAPLSKS	not soluble
MGSDKIHHHHHHMHLELRHLRTIRAIHQAGGLARAADVLHMTQSALSHQVKGLEDQAGIELFVRRSKPLKLSAAGIRLLRLAERILPEIDALEDEFRALRSGRTGRLHIAIECHACFEWLFPVLELFRHAWPEIDVDIRAGLAFEALPALMREEVDLVISSDPVTVEGMVFNPLFDYHPTFVAAASNPLAAREFISAEDFRDQMLITYPVSRDRLDVFTEVLTPAKVEPRGTRQVELTAVILMLVASNRGVSVLPDWVLRDVRSHADYVTRPLGPKTVTKRLYAATRTEDATKPFMAHFLRLGRSEPVKLQRA	not soluble
MGSDKIHHHHHHMIAGVPSVHPLPNMNHVEVKGVDLPAQIAQQVRKLINRGTLAPGLQLRQSDLADRFGISRVPVREALKLLAAEGIIEHDPNRGFFVAPLSTDEARQLYRYRFLLERELLKTVEWPDSTQMKALKAMLERLDSYLDSGQRAEWIDEYQDFYALLFDLSPDKILRREAIRLIRLTDRYRALASEVRVPGEQRTAHLEHTLLAAMSKRDRAQLIRGFEREREKILASMLARIDARGL	not soluble
MGSDKIHHHHHHMIAVLRINHRPFRDKRITTHVALTARAFGASSILVDEKDETLEQTINKVVENFGGNFFIKSGVDWKREFRNFKGIRVHLTMYGRPLEDVVKEIRESKKDVMILVGSEKVPFEAYEIADYNVSVTNQPISEVSALAIFLDRFYDGEELNWRFTGKINVYPSERGKKVKIIPDEQGCLDLLYKYGASDYLINHVKSVKELAVAIAKKTNADINLVTAGALLHDIGRTQVQGITHAVVGADILRREGIDDRVVSIVEKHIGAGIQSEEAVKLGLPPDNYVPETIEEMIVAHADNLFAGDKRLKLQQVVDNYRKKGLEDAAERIAKLHKFLSTVIGQDMDEI	not soluble
MGSDKIHHHHHHMIDLSTDYLGLKLKNPLVPSASPLSRNLDNALRLEDAGAAALVMYSLFEEELRAEDAMLDRFLTCPDFGHSEAANFLPSAPFEDGLERYVSQLQKLKARLGIPVIASLNGVSRSGWVELGRALEEAGADALELNVYHVAAEMWENGEAVEARYLSLLRDLRHAVKLPIVMKLSPFFSSLPNFVKRLEHAGAQGVVLFNRFYQPDIDLDTLCVVDRLHLSYPDEALLRIRWLSILHGRTGLTLAATGGVHSHDEALKMLLVGADVIHLASCLLQHGPARLTRILQDIERWMGERDYASVAQLKGSMSQKNLLDPAAMARLSYLRVLDSFSPQPGVWS	not soluble
MGSDKIHHHHHHMIDPDDMDHCRHAIREGSYSFHAASKLLPSSVRDPALALYAFCRLADDEVDFGADKPAAVLALSERLEHAYQGRPRNHPTDRAFTAMIEEFDMPRALPEALLEGLAWDGMERRYATLSDLRSYSARVASAVGAMMCVLMRVRDEQALARACDLGVAMQLTNIARDVGEDAAERRLYLPTDWLEEEGIDIERLFTSPVSSPRLKRLTKRLLAEAHKLYLKSEPGIGRLPLAARPGIFAARHCYDAIGRNLAQHGYDNVNRRATTTGGHKMRLLGLSIVRAGLASILPESPVIFARPLPETAFLVEAAAHPAPNKDAWSDPLLSVLSQLKAQDRPHAAE	not soluble
MGSDKIHHHHHHMIEQLIQQAQPYWQQYIEHEFVQQLAKGTLPKACFQHYLKQDYLYLFHYSRAFALGVFKAKNFAEMETPRKTLEILCQEIQLHLNYCREWGISEQEIFTTQESAACIAYTRYLLDCGMTGSLAELYAAVTPCALGYAQVARYITQHYPRLPNNPYQTWIDTYASEEFQQAAQETVDFLTALCKPLNPSQLAEIQQIFTTATRMEIAFWQMGLDLA	not soluble
MGSDKIHHHHHHMIERVINNIEKVIKGKREAIEVVVAALLAKGHVLMEDVPGVGKTMLARALALSLGVDFRRVQFTPDLLPTDLTGLYIYDRKKEDFVFKKGPVFTDVLLADEINRATPRTQSALLEAMAEGQVTVDGVTHRLSERFFVIATQNPIEYEGTFPLPEAQLDRFMICVKMGYPDEEAEIQMLTSQEKEHPISQLEPVMNPDELSELQKKVRNVFVSDEVKKYIVDIASATRNHPSLLLGMSPRGSIALMHFSMALAFMDGRDFTLPDDVKRAAVYVIPHRVIQSAESKLKREKKEDIVREILDRVKVVK	not soluble
MGSDKIHHHHHHMIFSMSSLHDMRFICLRTAPLKNSAYLLSALLIIACQPTSPTEALTSENNEMVDMPLISADSVTITPDHILSIKPTRYQPSLGLQGRIDSIKQINLVAGQPLTVEQVLVSENQWVKKGTPLLTVRRQEIFNKPTMSDDPATDVDASLNTTASNIDRASASDNTSQTSDLITLRARFSGRVENLSVQAGQKIEAQTALLKLSDATELHFISTLPIEAESQISVGQTVNFTAEDRVDKFTGQVSKVQALKQPIQLLVYVNVINNEVSRNQLAPGMQVTGRVDYGQIEVGTIVPKNALHNVDLTQIQVPPYKPLRSLTANIWIIGQDQRLTRQPIEVIEYDPLTKQYLIAGISSDSLICLANLPIESKGKKVVVS	not soluble
MGSDKIHHHHHHMIHEQDVQKLLNYITSHFGVDPERWFHPEGYQSIALAILDSIYSTGNRYTGVLNLVNRYCGLRANEGSHPEADTATDLIETFYRWGGVDEFVLKTNNRWRTSSKIHAPYKAYAALEAAKVLAGHSIESISDVVGRFDSRESREHSDIAREWLMITGQSSALTWSYFLMLVGVPGVKADRMIVRFVTHVLERPKEISRHEASRLIEEVADIMCVNYIYLDHTIWRFQSGRPYLQEDSSPFE	not soluble
MGSDKIHHHHHHMIIEHARDMLKRERLFFDKMQAHIGEVNGTISIGCSSLIGQTLLPEVLSLYNAQFPNVEIQVQVGSTEQIKANHRDYHVMITRGNKVMNLANTHLFNDDHYFIFPKNRRDDVTKLPFIEFQADPIYINQIKQWYNDNLEQDYHATITVDQVATCKEMLISGVGVTILPEIMMKNISKEQFEFEKVEIDNEPLIRSTFMSYDPSMLQLPQVDSFVNLMASFVEQPKA	not soluble
MGSDKIHHHHHHMIIGMSIARMFSRCTPIPNLSVRYNLDLYHLEFPIMAFIRQEDFIDSIHQALQYIACYHSPDFLAAMHDAWQREPSPAARDAIGQILINSYLCAQGQRPLCQDTGIVVAFVSVGMNVQWQASMSLQEMVDEGVRRAYLDPDNRLRASIVRDPAGKRLNTRDNTPSVVHVDMVPGDTVEIHIAAKGGGSENKSKLAMLEPSDDLIEWVLKTVPEMGAGWCPPGVLGIGIGGTAEKAVLLAKQSLFAPIDIQALRARGPQTRAEELRLEIYEKVNRLGIGAQGLGGLTTVLDVKILEAPTHATSLPVAIIPNCAATRHVHFTLDGTGPARLPAPRLEDWPRVALDASTPMRRVDLGKVTREDVISWQPGEKLLLSGKLLTGRDAAHKRIVDLIARGEPMPEGLDFTNRFIYYVGPVDPVGDEIIGPAGPTTATRMDRFTETMLTQTGLLGMIGKAERGEATVQSIKRHQSVYLIAIGGAAYLISQAIKASRIVAFADLGMEAIYEFTVEDMPVTVAVDSRGHAVHDTGPAEWRPRIANIPIFSE	not soluble
MGSDKIHHHHHHMIIIELNKRQEHIIQIVKDHGPITGESIAAQLGLTRATLRPDLAILTMAGYLEARPRVGYFYTGKTGGQLLSEAVKKIKVQDYQSRPVVIDKNVSVYDAICTMFLEDVGTLFVVDQSTLLVGVVSRKDLLRASLGKQDLTSLPVNIIMTRMPNIAMCRREDSLYDIAMELIERQIDAMPVVKDTKQGLEVVGRITKTNITRAFVNLVNNE	not soluble
MGSDKIHHHHHHMIINNVNMVLSQEIIHGSLEVRNGVIHHINDRPSRHPGALDGEQAWLLPGLVELHTDNLDKCFTPRPGVNWPSEAAMRNHDALIISSGITTVLDAVAVGDVRDGGHRLENLRRMTDAVLYSQQHGTNRADHHLHLRCELPHQDTFPLFEQLADIPLVALASLMDHSPGQRQFSSQEKYHQYYKGKYHLNDEQMAAFEEEQLAGSRRWSQPNREAIVRLCHEKGITLASHDDATSEHITESHQHRVAIAEFPTTEIAAQQAHGVGMNVLMGAPNVICGGSHSGNVSAHHLATLGVLHILSSDYYPASLLEAAFMIAEDERNDYDLPRAIALVSNNPAQALKFDDRGCIEEGRRADLLLVKRHAPQMKLMRVWRQGVRVF	not soluble
